# Experimental data taken from publication PMC10397247.
# T1: P9-AA
# T1 chain: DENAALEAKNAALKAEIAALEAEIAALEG
# T2: P1-AA
# T2 chain: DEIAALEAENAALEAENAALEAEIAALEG
# T3: AP7-AA
# T3 chain: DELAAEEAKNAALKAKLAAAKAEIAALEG
# T4: P10-AA
# T4 chain: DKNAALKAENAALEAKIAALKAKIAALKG
# T5: P4-AA
# T5 chain: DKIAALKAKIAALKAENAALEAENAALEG
# T6: AP5-AA
# T6 chain: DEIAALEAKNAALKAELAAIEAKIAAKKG
# T7: P12-AA
# T7 chain: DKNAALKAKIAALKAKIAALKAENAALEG
# T8: P11-AA
# T8 chain: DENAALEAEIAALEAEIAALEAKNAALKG
# T9: P3-AA
# T9 chain: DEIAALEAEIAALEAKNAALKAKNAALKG
# T10: P2-AA
# T10 chain: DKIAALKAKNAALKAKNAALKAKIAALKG
# T11: AP8-AA
# T11 chain: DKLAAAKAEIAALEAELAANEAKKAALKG
# T12: P8-AA
# T12 chain: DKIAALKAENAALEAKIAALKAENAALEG
# T13: P7-AA
# T13 chain: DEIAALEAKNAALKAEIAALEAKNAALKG
# T14: AP6-AA
# T14 chain: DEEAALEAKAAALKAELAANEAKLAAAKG
# T15: AP4-AA
# T15 chain: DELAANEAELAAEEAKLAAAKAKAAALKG
# T16: 4H3920-AA
# T16 chain: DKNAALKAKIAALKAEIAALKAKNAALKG
# T17: 4H2991-AA
# T17 chain: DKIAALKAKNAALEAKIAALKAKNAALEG
# T18: 4H3939-AA
# T18 chain: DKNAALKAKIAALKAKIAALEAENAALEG
# T19: 4H2713-AA
# T19 chain: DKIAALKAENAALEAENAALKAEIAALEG
# T20: 4H3591-AA
# T20 chain: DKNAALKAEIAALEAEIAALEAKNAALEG
# T21: 4H2742-AA
# T21 chain: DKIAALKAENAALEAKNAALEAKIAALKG
# T22: 4H3666-AA
# T22 chain: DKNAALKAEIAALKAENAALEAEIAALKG
# T23: 4H3066-AA
# T23 chain: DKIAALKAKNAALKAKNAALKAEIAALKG
# T24: 4H2948-AA
# T24 chain: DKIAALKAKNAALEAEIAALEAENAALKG
# T25: 4H3446-AA
# T25 chain: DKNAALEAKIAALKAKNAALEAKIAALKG
# T26: 4H3102-AA
# T26 chain: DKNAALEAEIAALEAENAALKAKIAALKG
# T27: 4H391-AA
# T27 chain: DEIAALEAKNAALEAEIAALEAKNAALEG
# T28: 4H3029-AA
# T28 chain: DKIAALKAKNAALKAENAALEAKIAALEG
# T29: 4H3709-AA
# T29 chain: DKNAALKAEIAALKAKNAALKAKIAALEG
# T30: 4H971-AA
# T30 chain: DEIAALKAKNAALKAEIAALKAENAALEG
# T31: 4H497-AA
# T31 chain: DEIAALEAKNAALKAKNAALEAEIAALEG
# T32: 4H2248-AA
# T32 chain: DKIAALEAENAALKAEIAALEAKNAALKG
# T33: 4H428-AA
# T33 chain: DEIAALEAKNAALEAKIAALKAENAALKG
# T34: 4H3628-AA
# T34 chain: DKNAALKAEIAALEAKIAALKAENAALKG
# T35: 4H189-AA
# T35 chain: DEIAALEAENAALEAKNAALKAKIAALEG
# T36: 4H2283-AA
# T36 chain: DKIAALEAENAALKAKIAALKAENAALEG
# T37: 4H656-AA
# T37 chain: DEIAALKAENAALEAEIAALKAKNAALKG
# T38: 4H3417-AA
# T38 chain: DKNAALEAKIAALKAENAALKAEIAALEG
# T39: 4H675-AA
# T39 chain: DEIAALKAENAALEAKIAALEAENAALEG
# T40: 4H3121-AA
# T40 chain: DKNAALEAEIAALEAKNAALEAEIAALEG
# T41: 4H478-AA
# T41 chain: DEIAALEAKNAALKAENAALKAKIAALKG
# What was measured:
# Assay in all cases: two-hybrid library CCmax;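 also: natural log of median RNA to DNA barcode read ratio; higher means stronger binding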
# P9-AA = target: T1, P9-AA; details: mean of both orientations
# P1-AA = target: T2, P1-AA; details: mean of both orientations
# AP7-AA = target: T3, AP7-AA; details: mean of both orientations
# P10-AA = target: T4, P10-AA; details: mean of both orientations
# P4-AA = target: T5, P4-AA; details: mean of both orientations
# AP5-AA = target: T6, AP5-AA; details: mean of both orientations
# P12-AA = target: T7, P12-AA; details: mean of both orientations
# P11-AA = target: T8, P11-AA; details: mean of both orientations
# P3-AA = target: T9, P3-AA; details: mean of both orientations
# P2-AA = target: T10, P2-AA; details: mean of both orientations
# AP8-AA = target: T11, AP8-AA; details: mean of both orientations
# P8-AA = target: T12, P8-AA; details: mean of both orientations
# P7-AA = target: T13, P7-AA; details: mean of both orientations
# GCN2_T = target: GCN2_T
# AP6-AA = target: T14, AP6-AA; details: mean of both orientations
# AP4-AA = target: T15, AP4-AA
# 4H3920-AA = target: T16, 4H3920-AA; details: mean of both orientations
# 4H2991-AA = target: T17, 4H2991-AA; details: mean of both orientations
# 4H3939-AA = target: T18, 4H3939-AA
# 4H2713-AA = target: T19, 4H2713-AA; details: mean of both orientations
# 4H3591-AA = target: T20, 4H3591-AA; details: mean of both orientations
# 4H2742-AA = target: T21, 4H2742-AA; details: mean of both orientations
# 4H3666-AA = target: T22, 4H3666-AA; details: mean of both orientations
# 4H3066-AA = target: T23, 4H3066-AA; details: mean of both orientations
# 4H2948-AA = target: T24, 4H2948-AA; details: mean of both orientations
# 4H3446-AA = target: T25, 4H3446-AA; details: mean of both orientations
# 4H3102-AA = target: T26, 4H3102-AA; details: mean of both orientations
# 4H391-AA = target: T27, 4H391-AA; details: mean of both orientations
# 4H3029-AA = target: T28, 4H3029-AA; details: mean of both orientations
# 4H3709-AA = target: T29, 4H3709-AA; details: mean of both orientations
# 4H971-AA = target: T30, 4H971-AA; details: mean of both orientations
# 4H497-AA = target: T31, 4H497-AA; details: mean of both orientations
# 4H2248-AA = target: T32, 4H2248-AA; details: mean of both orientations
# 4H428-AA = target: T33, 4H428-AA; details: mean of both orientations
# 4H3628-AA = target: T34, 4H3628-AA; details: mean of both orientations
# 4H189-AA = target: T35, 4H189-AA
# 4H2283-AA = target: T36, 4H2283-AA; details: mean of both orientations
# 4H656-AA = target: T37, 4H656-AA; details: mean of both orientations
# 4H3417-AA = target: T38, 4H3417-AA; details: mean of both orientations
# 4H675-AA = target: T39, 4H675-AA; details: mean of both orientations
# 4H3121-AA = target: T40, 4H3121-AA; details: mean of both orientations
# 4H478-AA = target: T41, 4H478-AA; details: mean of both orientations
binder,measurement,setting,value
DELAANEAELAAEEAKLAAAKAKAAALKG [AP4-AA],interaction score,P9-AA,-1.6
same,interaction score,P1-AA,-1.34
same,interaction score,AP7-AA,-1.78
same,interaction score,P10-AA,-1.25
same,interaction score,P4-AA,-1.48
same,interaction score,AP5-AA,-1.51
same,interaction score,P12-AA,-1.45
same,interaction score,P11-AA,-0.858
same,interaction score,P3-AA,-1.14
same,interaction score,P2-AA,-1.78
same,interaction score,AP8-AA,-1.25
same,interaction score,P8-AA,-1.15
same,interaction score,P7-AA,-1.82
same,interaction score,GCN2_T,-1.55
same,interaction score,AP6-AA,-2.03
same,interaction score,AP4-AA,-1.46
DEIAALEAENAALEAKNAALKAKIAALEG [4H189-AA],interaction score,4H3920-AA,-1.97
same,interaction score,4H2991-AA,-1.76
same,interaction score,4H3939-AA,-1.4
same,interaction score,4H2713-AA,1.05
same,interaction score,4H3591-AA,-0.919
same,interaction score,4H2742-AA,1.11
same,interaction score,4H3666-AA,-0.914
same,interaction score,4H3066-AA,1.07
same,interaction score,4H2948-AA,-1.02
same,interaction score,4H3446-AA,-1.07
same,interaction score,4H3102-AA,-1.74
same,interaction score,4H391-AA,-1.47
same,interaction score,4H3029-AA,2.05
same,interaction score,4H3709-AA,-1.23
same,interaction score,4H971-AA,-1.52
same,interaction score,4H497-AA,0.26
same,interaction score,4H2248-AA,-1.26
same,interaction score,4H428-AA,-1.92
same,interaction score,4H3628-AA,-1.64
same,interaction score,4H189-AA,-1.25
same,interaction score,4H2283-AA,-1.71
same,interaction score,4H656-AA,-0.83
same,interaction score,4H3417-AA,-1.19
same,interaction score,4H675-AA,-1.31
same,interaction score,4H3121-AA,-1.84
same,interaction score,4H478-AA,1.85
